Data taken from patent US20240352070A1 (ECOLE POLYTECHNIQUE FEDERALE DE LAUSANNE EPFL, published 2024).
Square brackets hold non-standard residues; d marks the D form. Ends that are not written are not given here. Michael acceptor = not defined here

Experiments:
[1] = biological target: human cathepsin S wild-type, amino acids 17 to 331, C-terminal His-tag (CTSS-His) (human, UniProt P25774 115-331); test: cell-based or functional assay
[2] = biological target: purified cathepsin B (CTSB), purchased from RndSystems (UniProt P07858 80-333); test: cell-based or functional assay

Chain of human cathepsin S wild-type, amino acids 17 to 331, C-terminal His-tag (CTSS-His) (P25774 115-331 limits assumed, form in doubt): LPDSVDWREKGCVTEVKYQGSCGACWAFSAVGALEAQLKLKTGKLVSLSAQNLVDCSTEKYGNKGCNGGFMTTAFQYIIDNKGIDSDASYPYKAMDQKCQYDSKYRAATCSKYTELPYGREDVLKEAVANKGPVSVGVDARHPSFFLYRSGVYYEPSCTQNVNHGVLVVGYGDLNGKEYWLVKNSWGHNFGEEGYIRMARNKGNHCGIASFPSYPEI

| IC50, CTSS activity, FRET assay dose-response [1] [µM] | IC50, CTSB activity, FRET assay dose-response [2] [µM] | Binder |
| --- | --- | --- |
| 86.6 | 0.0619 | KRRY[Michael acceptor]WMW (not fully specified; reading uncertain) [Non-natural peptide inhibitor D5, KRRY(Y)WMW] |
| 0.0493 |  | KHRM[Michael acceptor]VMW (not fully specified; reading uncertain) [Non-natural peptide inhibitor C10, KHRM(Y)VMW] |
